Drawing on US20200247894A1, this text covers EC50; IL-7 dose response; NK92/hIL7R/STAT3-luc and 50 nM Ag Bound for three molecules.

For assay [1], the target named is human IL2Rγ (endogenously expressed on cells) (human) (UniProt P31785). The assay is described as follows: cell-based or functional assay.
Assay [2] concerns the target Human IL2Rγ extracellular domain expressed with a C-terminal mouse IgG2a Fc tag (human). The assay is described as follows: SPR Biacore 4000, anti-hFc-captured mAb, 25 C.
The target is the same in assay [3]. The experiment in a line: SPR Biacore 4000, anti-hFc-captured mAb, 37 C.

Human IL2Rγ extracellular domain expressed with a C-terminal mouse IgG2a Fc tag (human), sequence (chain, as listed by the source limits assumed): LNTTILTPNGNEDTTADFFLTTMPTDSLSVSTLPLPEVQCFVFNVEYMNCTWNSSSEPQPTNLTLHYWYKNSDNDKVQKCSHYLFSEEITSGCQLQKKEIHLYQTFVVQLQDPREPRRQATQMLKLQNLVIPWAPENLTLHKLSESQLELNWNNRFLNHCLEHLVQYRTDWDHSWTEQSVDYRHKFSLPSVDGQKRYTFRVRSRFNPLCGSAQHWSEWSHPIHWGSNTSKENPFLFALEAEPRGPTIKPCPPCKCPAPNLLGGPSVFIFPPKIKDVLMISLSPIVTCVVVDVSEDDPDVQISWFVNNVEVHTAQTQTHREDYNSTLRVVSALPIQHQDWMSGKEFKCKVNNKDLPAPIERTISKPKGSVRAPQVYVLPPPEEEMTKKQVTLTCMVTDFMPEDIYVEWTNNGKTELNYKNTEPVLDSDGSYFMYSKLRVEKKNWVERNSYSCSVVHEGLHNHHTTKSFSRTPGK
human IL2Rγ (endogenously expressed on cells) (human), sequence (P31785 23-369): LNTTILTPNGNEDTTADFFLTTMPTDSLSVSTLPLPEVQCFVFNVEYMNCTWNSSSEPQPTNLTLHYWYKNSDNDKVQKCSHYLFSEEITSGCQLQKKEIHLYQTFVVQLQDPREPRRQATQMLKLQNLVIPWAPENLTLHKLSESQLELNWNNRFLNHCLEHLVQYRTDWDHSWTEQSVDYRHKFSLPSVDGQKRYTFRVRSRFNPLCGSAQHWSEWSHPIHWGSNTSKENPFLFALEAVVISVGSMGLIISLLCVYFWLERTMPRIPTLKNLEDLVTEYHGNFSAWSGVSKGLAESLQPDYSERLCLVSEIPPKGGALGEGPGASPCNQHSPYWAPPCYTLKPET

B1: human IL-7 (ligand, UniProt P13232 26-177, looked up)
chain: DCDIEGKDGKQYESVLMVSIDQLLDSMKEIGSNCLNNEFNFFKRHICDANKEGMFLFRAARKLRQFLKMNSTGDFDLHLLKVSEGTTILLNCTGQVKGRKPAALGEAQPTKSLEENKSLKEQKKLNDLCFLKRLLQEIKTCWNKILMGTKEH
B1 showed an EC50; IL-7 dose response; NK92/hIL7R/STAT3-luc in assay [1] of 0.039 nM.

B2: H4H12899P (antibody, human IgG4 S228P, kappa, V domains shown)
VH: QVQLVESGGDLVKPGGSLRLSCATSGFTFSDFYMTWIRQAPGKGLEWISYISNSGSIVKYADSVKGRFTISRDNAKNSLYLQMNSLRAEDTAIYYCARFYGDRWGQGTLVTVSS
VL: DIQLTQSPSFLSASVGDRVTITCWASQGISTFLAWYQQKPGKAPKLLIYAASTLQSGVPSRFSGSGSGTDFTLTISSLQPEDFATYHCQQLNNYPWTFGQGTKVEIKR
Turning to B2, the 50 nM Ag Bound in assay [2] is 1 RU; in assay [3] it was 2 RU.

B3: H4H12900P (antibody, human IgG4 S228P, kappa, V domains shown)
VH: QVQLVESGGGLVKPGGSLRLSCEASGFTFNDFYMTWIRQAPGKGLEWIAYISKSGDKMRYADSVKGRFSTSRDNAKNSLSLQMNSLRAEDTAVYYCARFYGDIWGQGTLVTVSS
VL: DIQLTQSPSFLSASVGDRVTITCWASQDISSFLVWYQQKPGKAPNLLIYAASALQSGVPSRFSGSGSGTEFTLTISSLQPEDFASYYCEQLNNYPWTFGQGTKVEIKR
As to B3, the 50 nM Ag Bound in assay [2] and in assay [3] was 4 RU throughout.
